{
  "source": "patent US20180289790A1",
  "about": "(Bristol-Myers Squibb, published 2018)",
  "molecules": {"B1": {"name": "17C4 (antibody, V domains shown)", "VH": "QVTLRESGPALVKPTQTLTLTCTFSGFSLSTSGMCVSWIRQPPGKALEWLALIDWDDDKFYSTSLKTRLTISKDTSKNQVVLTMTNMDPVDTATYYCARMSTPTYYGLDVWGQGTTVTVSS", "VL": "DIQMTQSPSSLSASVGDRVTITCRASQGISSWLAWYQQKPEKAPKSLIYAASSLQSGVPSRFSGSGSGTDFTLTISSLQPEDFATYYCQQYNSYPLTFGGGTKVEIK", "notes": "Fully human hybridoma antibody"}, "B2": {"name": "9D5 (antibody, V domains shown)", "VH": "QITLKESGPTLVKPTQTLTLTCTFSGFSLGTSGLGVGWIRQPPGKALEWLAFIYWDDDKRYSPSLKSRLTITKDTSKNQVVLTMTNMDPVDTATYYCAHRRGFFDYWGQGTLVTVSS", "VL": "B1 VL", "notes": "as for B1"}, "B3": {"name": "3E8 (antibody, V domains shown)", "VH": "QVQLVESGGGVVQPGMSLRLSCAASGFTFSTYGMQWVRQAPGKGLEWVTVIWHDGSHKDYADSVKGRFTISRDNSKNTMYLQMNSLRAEDTAVYYCARDRQTGEGYFDFWGQGTLVTVSS", "VL": "B1 VL with L96Y, G100Q, V104L", "notes": "as for B1"}, "B4": {"name": "IgG-2644 (antibody, V domains shown)", "VH": "EVQLLESGGGLVQPGGSLRLSCEASGFIFKYYAMSWVRQAPGKGLEWVSGISGSGGSTYYADSVKGRFTISRDNSKHTLYLQMNSLRAEDTAVYYCAKDGDFDWIHYYYGMDVWGQGTTVTVSS", "VL": "AIQLTQSPSSLSASVGDRVTITCRASQGISSALAWYQQKPGKAPKLLIYDASSLESGVPSRFSGSGSGTDFTLTISSLQPEDFATYYCQQFNSYPHTFGGGTKVEIKR", "notes": "Human antibody from mRNA display, cloned into IgG expression vectors"}, "B5": {"name": "ICOS.33 IgG1f S267E Fab fragment (Lot PC-1804-04) (Fab, V domains shown)", "VH": "EVQLVESGGGLVKPGGSLRLSCAASGFTFSDYFMHWVRQAPGKGLEWVGVIDTKSFNYATYYSDLVKGRFTISRDDSKNTLYLQMNSLKTEDTAVYYCTATIAVPYYFDYWGQGTLVTVSS", "VL": "DIQMTQSPSSLSASVGDRVTITCQASQDISNYLSWYQQKPGKAPKLLIYYTNLLAEGVPSRFSGSGSGTDFTFTISSLQPEDIATYYCQQYYNYRTFGPGTKVDIKR", "notes": "Fab of m1; also called Fab fragment of ICOS.33 IgG1f S267E"}},
  "key": {"[1]": {"biological_target": "human ICOS (huICOS), on activated human CD4+ T cells (human) (UniProt Q9Y6W8)", "assay": "cell-based or functional assay"}, "hCD32a-R131 (human)": {"biological_target": "hCD32a-R131 (human) (UniProt P12318)", "sequence (P12318 36-218 H167R limits assumed)": "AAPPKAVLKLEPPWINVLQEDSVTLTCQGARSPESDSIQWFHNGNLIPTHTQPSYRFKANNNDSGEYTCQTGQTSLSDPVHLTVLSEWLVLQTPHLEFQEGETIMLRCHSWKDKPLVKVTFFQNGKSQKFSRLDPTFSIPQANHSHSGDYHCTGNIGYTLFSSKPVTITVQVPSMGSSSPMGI", "assay": "method not stated (Table 9, 'µM Kd')"}, "hCD32b (human)": {"biological_target": "hCD32b (human) (UniProt P31994)", "sequence (P31994 43-217 limits assumed)": "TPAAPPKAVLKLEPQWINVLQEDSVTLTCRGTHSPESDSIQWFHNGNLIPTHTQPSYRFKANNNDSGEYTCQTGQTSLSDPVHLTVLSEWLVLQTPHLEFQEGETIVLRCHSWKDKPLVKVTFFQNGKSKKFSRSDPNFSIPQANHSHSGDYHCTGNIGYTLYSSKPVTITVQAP", "assay": "method not stated (Table 9, 'µM Kd')"}, "hCD64 (human)": {"biological_target": "hCD64 (human) (UniProt P12314)", "sequence (P12314 16-288 limits assumed)": "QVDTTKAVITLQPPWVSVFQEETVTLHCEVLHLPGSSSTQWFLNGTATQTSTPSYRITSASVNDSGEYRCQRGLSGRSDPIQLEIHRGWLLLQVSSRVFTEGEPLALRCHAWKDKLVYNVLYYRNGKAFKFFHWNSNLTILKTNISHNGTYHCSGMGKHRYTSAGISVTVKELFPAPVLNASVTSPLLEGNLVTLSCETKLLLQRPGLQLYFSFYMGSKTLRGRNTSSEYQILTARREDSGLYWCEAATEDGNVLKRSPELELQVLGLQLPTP", "assay": "method not stated (Table 9, 'µM Kd')"}, "hCD16a-V158 (human)": {"biological_target": "hCD16a-V158 (human) (UniProt P08637)", "sequence (P08637 17-208 F176V limits assumed)": "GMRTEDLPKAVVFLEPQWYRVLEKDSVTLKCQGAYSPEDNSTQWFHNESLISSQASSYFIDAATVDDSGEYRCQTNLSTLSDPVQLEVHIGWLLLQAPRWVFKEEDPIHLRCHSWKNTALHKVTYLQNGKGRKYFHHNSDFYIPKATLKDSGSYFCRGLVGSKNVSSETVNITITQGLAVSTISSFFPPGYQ", "assay": "method not stated (Table 9, 'µM Kd')"}, "hCD16a-F158 (human)": {"biological_target": "hCD16a-F158 (human) (UniProt P08637)", "sequence (P08637 17-208 limits assumed)": "as the sequence (P08637 17-208 F176V limits assumed) above, with V160F counted along it", "assay": "method not stated (Table 9, 'µM Kd')"}, "hCD32a-H131 (human)": {"biological_target": "hCD32a-H131 (human) (UniProt P12318)", "sequence (P12318 36-218 limits assumed)": "as the sequence (P12318 36-218 H167R limits assumed) above, with R132H counted along it", "assay": "method not stated (Table 9, 'µM Kd')"}, "huICOS/Fc [2]": {"biological_target": "T1, huICOS/Fc (human, UniProt Q9Y6W8 21-140)", "T1 construct": "also called huICOS polypeptide construct; human ICOS antigen; not shown: Fc part", "T1 sequence": "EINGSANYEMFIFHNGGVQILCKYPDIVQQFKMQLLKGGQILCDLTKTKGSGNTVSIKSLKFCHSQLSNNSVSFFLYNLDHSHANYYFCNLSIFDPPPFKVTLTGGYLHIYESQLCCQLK", "assay": "SPR binning: reference antibody on chip, test antibody pre-incubated with huICOS/Fc"}, "huICOS/Fc [3]": {"biological_target": "T1, huICOS/Fc", "assay": "HDX-MS, ICOS-Fc mixed with mAb at 1:1 ratio", "protocol": "ICOS-Fc was mixed with mAbs at 1:1 ratio and HDX-MS was run for one minute, 10 minutes, 4 hours in duplicate."}, "[4]": {"biological_target": "T2, human ICOS Fc (R&D Systems, 169-CS-050) (human, UniProt Q9Y6W8 21-140)", "T2 construct": "Bought construct; also called human ICOS with an Fc tag; not shown: Fc tag", "T2 sequence": "T1 sequence", "assay": "SPR (Biacore T200), 37 °C, human ICOS Fc captured by anti-hFc on a CM4 chip, Fab as analyte, 1:1 Langmuir model"}},
  "note": "Changes are numbered by the printed parent chain. In names and notes the source's numbering stands.",
  "data": [
    {"molecule": "ICOS.4 (chimeric antibody with the variable regions of hamster antibody C398.4A and human IgG1f constant regions)", "values": [
      {"measurement": "EC50 of interferon-gamma secretion, CHO-OKT3-CD32 / CD4+CD25- T cell co-culture", "setting": "[1]", "result": 0.018, "unit": "µg/mL"}
    ]},
    {"molecule": "human IgG1f (wild type), as in Table 9 (antibody)", "values": [
      {"measurement": "Kd", "setting": "hCD32a-R131 (human)", "result": 960, "unit": "µM"},
      {"measurement": "Kd", "setting": "hCD32b (human)", "result": 3400, "unit": "µM"},
      {"measurement": "Kd", "setting": "hCD64 (human)", "result": 0.2, "unit": "µM"},
      {"measurement": "Kd", "setting": "hCD16a-V158 (human)", "result": 97, "unit": "µM"},
      {"measurement": "Kd", "setting": "hCD16a-F158 (human)", "result": 200, "unit": "µM"},
      {"measurement": "Kd", "setting": "hCD32a-H131 (human)", "result": 530, "unit": "µM"}
    ]},
    {"molecule": "human IgG1f-S267E, as in Table 9 (antibody)", "values": [
      {"measurement": "Kd", "setting": "hCD32a-R131 (human)", "result": 31, "unit": "µM"},
      {"measurement": "Kd", "setting": "hCD32b (human)", "result": 87, "unit": "µM"},
      {"measurement": "Kd", "setting": "hCD64 (human)", "result": 0.2, "unit": "µM"},
      {"measurement": "Kd", "setting": "hCD32a-H131 (human)", "result": 650, "unit": "µM"}
    ]},
    {"molecule": "B1", "values": [
      {"measurement": "binding result", "setting": "huICOS/Fc [2]", "result": "binds"}
    ]},
    {"molecule": "B2", "values": [
      {"measurement": "binding result", "setting": "huICOS/Fc [3]", "result": "binds"}
    ]},
    {"molecule": "B3", "values": [
      {"measurement": "binding result", "setting": "huICOS/Fc [2]", "result": "binds"}
    ]},
    {"molecule": "B4", "values": [
      {"measurement": "binding result", "setting": "huICOS/Fc [2]", "result": "binds"}
    ]},
    {"molecule": "B5", "values": [
      {"measurement": "Kd", "setting": "[4]", "result": "0.052 to 0.065", "unit": "µM"}
    ]}
  ]
}
